This is an account of results in patent publication US20160108115.

Usually Kd stands for a measure of binding affinity in units of concentration. A low value points to tighter binding.

Targets include FcγRIIIb (human) (UniProt O75015); FcγRIIIa (human) (UniProt P08637); FcγRI (human) (UniProt P12314).
Test in all cases: SPR, pH 7.4
What all share (conditions): remark: other sources report otherwise
For orientation: In SPR one partner is held on a chip, and binding of the other changes the refractive index at the surface.

Chain of FcγRIIIb (human) (O75015 17-200): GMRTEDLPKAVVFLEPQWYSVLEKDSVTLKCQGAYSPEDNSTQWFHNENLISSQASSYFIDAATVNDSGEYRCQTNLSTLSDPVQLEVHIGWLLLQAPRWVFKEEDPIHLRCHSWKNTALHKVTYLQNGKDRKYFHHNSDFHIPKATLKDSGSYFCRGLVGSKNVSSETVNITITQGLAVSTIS
Chain of FcγRIIIa (human) (P08637 17-208): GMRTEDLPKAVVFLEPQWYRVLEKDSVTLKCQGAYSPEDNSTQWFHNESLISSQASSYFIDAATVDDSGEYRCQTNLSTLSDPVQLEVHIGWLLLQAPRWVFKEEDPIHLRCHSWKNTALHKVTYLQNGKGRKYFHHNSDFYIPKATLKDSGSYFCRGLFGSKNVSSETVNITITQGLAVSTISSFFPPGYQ
Chain of FcγRI (human) (P12314 16-288): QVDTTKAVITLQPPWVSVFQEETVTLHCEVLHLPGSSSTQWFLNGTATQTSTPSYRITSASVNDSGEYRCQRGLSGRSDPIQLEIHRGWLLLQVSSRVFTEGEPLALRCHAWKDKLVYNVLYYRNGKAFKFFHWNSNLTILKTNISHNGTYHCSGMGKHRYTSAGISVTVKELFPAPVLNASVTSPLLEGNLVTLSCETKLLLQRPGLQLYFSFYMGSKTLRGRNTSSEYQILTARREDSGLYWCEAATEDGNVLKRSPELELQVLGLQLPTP

For the substance eculizumab (full length), the dissociation constant (Kd) in the test with FcγRIIIb (human) worked out at 3.49 µM; with FcγRIIIa (human), 6.78 µM; with FcγRI (human), 3.78 µM.
